# From US10485854B2, “Method of reducing biofilms” (Lysando AG, priority 2010, dated 2019)
# Experiments:
# [1] = tested on: P. aeruginosa PAO1p cells; assay: Antibacterial activity, 1 hour incubation with 100 μg/ml protein, residual colony count; settings: for antibacterial effect in words (reduction of cell numbers compared to the negative control): 100 μg/ml protein, room temperature; for antibacterial activity as the relative inactivation (%): exponentially growing cells, room temperature (Table 6); for antibacterial activity as the relative inactivation (%) / Reduction [%]: undialyzed protein 100 μg/ml; for Reduction [%]: room temperature (Table 7)
# P. aeruginosa PAO1p = type: cell-based, Pseudomonas aeruginosa; settings: 1.315 μM endolysin + 0.5 mM EDTA
# [2] = tested on: biofilm of the Staphylococcus aureus strain KS13; assay: Biofilm reduction, crystal violet assay; settings: 18 μg/well, 12 h; compared to the enzyme Lysostaphin
Molecule,antibacterial effect in words (reduction of cell numbers compared to the negative control) [1],antibacterial activity as the relative inactivation (%) [1],Reduction [%] [1],other results
"POLY-gp144: fusion protein SEQ ID NO: 35: endolysin phiKZgp144 (SEQ ID NO: 1) with N-terminal peptide KRKKRKKRK (SEQ ID NO: 11) (protein, POLY-gp144) MGSKRKKRKKRKKVLRKGDRGDEVCQLQTLLNLCGYDVGKPDGIFGNNTFNQVVKFQKDNCLDSDGIVGKNTWAELFSKYSPPIPYKTIPMPTANKSRAAATPVMNAVENATGVRSQLLLTFASIESAFDYEIKAKTSSATGWFQFLTGTWKTMIENYGMKYGVLTDPTGALRKDPRISALMGAELIKENMNILRPVLKREPTDTDLYLAHFFGPGAARRFLTTGQNELAATHFPKEAQANPSIFYNKDGSPKTIQEVYNLMDGKVAAHRK",significant reduction,99.85±0.09%,–,–
"K8_pET32b: fusion protein SEQ ID NO: 48: endolysin SEQ ID NO: 1 with peptide KKKKKKKK (SEQ ID NO: 13) (protein, K8_pET32b) AMGSKKKKKKKKKVLRKGDRGDEVCQLQTLLNLCGYDVGKPDGIFGNNTFNQVVKFQKDNCLDSDGIVGKNTWAELFSKYSPPIPYKTIPMPTANKSRAAATPVMNAVENATGVRSQLLLTFASIESAFDYEIKAKTSSATGWFQFLTGTWKTMIENYGMKYGVLTDPTGALRKDPRISALMGAELIKENMNILRPVLKREPTDTDLYLAHFFGPGAARRFLTTGQNELAATHFPKEAQANPSIFYNKDGSPKTIQEVYNLMDGKVAAHRK",–,–,99%,–
"pK2KZ144_pET32b_mod3: fusion protein SEQ ID NO: 49: endolysin SEQ ID NO: 1 with 38-residue linker-containing peptide SEQ ID NO: 28 (protein, pK2KZ144_pET32b_mod3) AMGSKRKKRKKRKRGSGSGKRKKRKKRKRGSGSGKRKKRKKRKKVLRKGDRGDEVCQLQTLLNLCGYDVGKPDGIFGNNTFNQVVKFQKDNCLDSDGIVGKNTWAELFSKYSPPIPYKTIPMPTANKSRAAATPVMNAVENATGVRSQLLLTFASIESAFDYEIKAKTSSATGWFQFLTGTWKTMIENYGMKYGVLTDPTGALRKDPRISALMGAELIKENMNILRPVLKREPTDTDLYLAHFFGPGAARRFLTTGQNELAATHFPKEAQANPSIFYNKDGSPKTIQEVYNLMDGKVAAHRK",–,–,99.9%,–
"PKPSP3gp10: fusion protein SEQ ID NO: 53: endolysin PSP3gp10 (SEQ ID NO: 8) with peptide SEQ ID NO: 11 (protein, PKPSP3gp10) MGSKRKKRKKRKPVINTHQNIAAFLDMLAYSEGTANHPLTKNRGYDVIVTGFDGSPEIFTDYSDHPFAHGRPPKVFNRRGEKSTASGRYQQLYIFWPHYKKQLALPDFSPLSQDKLAIQLIRERGAIDDIRAGRIERAVSRCRNIWASLPGAGYGQREHSLEKLVTVWRTAGGVMA",–,–,–,interaction of EDTA with the endolysin (P. aeruginosa PAO1p): synergistically
"PSP3gp10: unmodified globular endolysin of Salmonella typhimurium phage PSP3, SEQ ID NO: 8 (protein, PSP3gp10) MPVINTHQNIAAFLDMLAYSEGTANHPLTKNRGYDVIVTGFDGSPEIFTDYSDHPFAHGRPPKVFNRRGEKSTASGRYQQLYIFWPHYKKQLALPDFSPLSQDKLAIQLIRERGAIDDIRAGRIERAVSRCRNIWASLPGAGYGQREHSLEKLVTVWRTAGGVMA",–,–,–,interaction of EDTA with the endolysin (P. aeruginosa PAO1p): synergistically
"R9_pET32b: fusion protein SEQ ID NO: 47: endolysin SEQ ID NO: 1 with peptide RRRRRRRRR (SEQ ID NO: 12) (protein, R9_pET32b) AMGSRRRRRRRRRKVLRKGDRGDEVCQLQTLLNLCGYDVGKPDGIFGNNTFNQVVKFQKDNCLDSDGIVGKNTWAELFSKYSPPIPYKTIPMPTANKSRAAATPVMNAVENATGVRSQLLLTFASIESAFDYEIKAKTSSATGWFQFLTGTWKTMIENYGMKYGVLTDPTGALRKDPRISALMGAELIKENMNILRPVLKREPTDTDLYLAHFFGPGAARRFLTTGQNELAATHFPKEAQANPSIFYNKDGSPKTIQEVYNLMDGKVAAHRK",–,–,99%,–
"POLY-gp188: fusion protein SEQ ID NO: 39: endolysin ELgp188 (SEQ ID NO: 2) with peptide SEQ ID NO: 11 (protein, POLY-gp188) MGSKRKKRKKRKNFRTKNGYRDLQALVKELGLYTGQIDGVWGKGTSSSTETLLRGYAEVVGKNTGGIGLPTTSDASGYNVITALQRNLAFLGLYSLTVDGIWGNGTLSGLDKAFEVYKERYRTPTYDIAWSGKVSPAFTAKVKDWCGVHVPNHRAPHWLMACMAFETGQTFSPSIKNAAGSEAYGLIQFMSPAANDLNVPLSVIRSMDQLTQLDLVFKYFEMWMKRGKRYTQLEDFYLTIFHPASVGKKADEVLFLQGSKAYLQNKGFDVDKDGKITLGEISSTLYTTYYKGLLPENRHVISY",significant reduction,98.0±0.2%,–,–
"PK-Lysostaphin: fusion protein SEQ ID NO: 142: bacteriocin Lysostaphin (SEQ ID NO: 87) with peptide SEQ ID NO: 11 (protein, PK-Lysostaphin) AMGKRKKRKKRKGSAHEHSAQWLNNYKKGYGYGPYPLGINGGMHYGVDFFMNIGTPVKAISSGKIVEAGWSNYGGGNQIGLIENDGVHRQWYMHLSKYNVKVGDYVKAGQIIGWSGSTGYSTAPHLHFQRMVNSFSNSTAQDPMPFLKSAGYGKAGGTVTPTPNTGWKTNKYGTLYKSESASFTPNTDIITRTTGPFRSMPQSGVLKAGQTIHYDEVMKQDGHVWVGYTGNSGQRIYLPVRTWNKSTNTLGVLWGTIKLVPRGS",–,–,–,"reduction of biofilm (crystal violet, absorption 590 nm) [2]: massive reduction"
"(POLY)^2-gp144: fusion protein SEQ ID NO: 36: endolysin SEQ ID NO: 1 with peptide SEQ ID NO: 21 (protein, (POLY)2-gp144) MGSKRKKRKKRKRSKRKKRKKRKKVLRKGDRGDEVCQLQTLLNLCGYDVGKPDGIFGNNTFNQVVKFQKDNCLDSDGIVGKNTWAELFSKYSPPIPYKTIPMPTANKSRAAATPVMNAVENATGVRSQLLLTFASIESAFDYEIKAKTSSATGWFQFLTGTWKTMIENYGMKYGVLTDPTGALRKDPRISALMGAELIKENMNILRPVLKREPTDTDLYLAHFFGPGAARRFLTTGQNELAATHFPKEAQANPSIFYNKDGSPKTIQEVYNLMDGKVAAHRK",significant reduction,99.98±0.02%,–,–
"(POLY)^2-gp188: fusion protein SEQ ID NO: 40: endolysin SEQ ID NO: 2 with peptide SEQ ID NO: 21 (protein, (POLY)2-gp188) MGSKRKKRKKRKRSKRKKRKKRKNFRTKNGYRDLQALVKELGLYTGQIDGVWGKGTSSSTETLLRGYAEVVGKNTGGIGLPTTSDASGYNVITALQRNLAFLGLYSLTVDGIWGNGTLSGLDKAFEVYKERYRTPTYDIAWSGKVSPAFTAKVKDWCGVHVPNHRAPHWLMACMAFETGQTFSPSIKNAAGSEAYGLIQFMSPAANDLNVPLSVIRSMDQLTQLDLVFKYFEMWMKRGKRYTQLEDFYLTIFHPASVGKKADEVLFLQGSKAYLQNKGFDVDKDGKITLGEISSTLYTTYYKGLLPENRHVISY",significant reduction,98.9 ± 0.4%,–,–
"ELgp188: unmodified modular endolysin of Pseudomonas aeruginosa phage EL, SEQ ID NO: 2 (protein, ELgp188) MNFRTKNGYRDLQALVKELGLYTGQIDGVWGKGTSSSTETLLRGYAEVVGKNTGGIGLPTTSDASGYNVITALQRNLAFLGLYSLTVDGIWGNGTLSGLDKAFEVYKERYRTPTYDIAWSGKVSPAFTAKVKDWCGVHVPNHRAPHWLMACMAFETGQTFSPSIKNAAGSEAYGLIQFMSPAANDLNVPLSVIRSMDQLTQLDLVFKYFEMWMKRGKRYTQLEDFYLTIFHPASVGKKADEVLFLQGSKAYLQNKGFDVDKDGKITLGEISSTLYTTYYKGLLPENRHVISY",do not reduce cell numbers significantly,10 ± 13%,–,–
"KRK_6_pET32b: fusion protein SEQ ID NO: 44: endolysin SEQ ID NO: 1 with peptide KRKKRK (SEQ ID NO: 10) (protein, KRK_6_pET32b) AMGSKRKKRKKVLRKGDRGDEVCQLQTLLNLCGYDVGKPDGIFGNNTFNQVVKFQKDNCLDSDGIVGKNTWAELFSKYSPPIPYKTIPMPTANKSRAAATPVMNAVENATGVRSQLLLTFASIESAFDYEIKAKTSSATGWFQFLTGTWKTMIENYGMKYGVLTDPTGALRKDPRISALMGAELIKENMNILRPVLKREPTDTDLYLAHFFGPGAARRFLTTGQNELAATHFPKEAQANPSIFYNKDGSPKTIQEVYNLMDGKVAAHRK",–,–,99.9%,–
